Test results as given in patent publication US5972683.
One block for each substance: values may come before it.

Columns and labels:
[1] = molecular target: succinyl-Ala-Ala-Pro-Phe-p-nitroanilide (Artificial Sequence)
[2] = molecular target: succinyl-Ala-Ala-Val-Ala-p-nitroanilide (Artificial Sequence)
[3] = molecular target: succinyl-Ala-Ala-Pro-Leu-p-nitroanilide
[4] = molecular target: succinyl-Ala-Ala-Pro-Ala-p-nitroanilide (Artificial Sequence)

Substance: subtilisin YaB mutant 151L (enzyme)
Specific activity (unit/mg protein), elastin-orcein (unit/mg protein) (elastin-orcein): 161
Specific activity (unit/mg protein), casein (unit/mg protein) (casein): 717

Substance: subtilisin YaB mutant G159W (enzyme)
Specific activity (unit/mg protein), elastin-orcein (unit/mg protein) (elastin-orcein): 324
Specific activity (unit/mg protein), casein (unit/mg protein) (casein): 1630
Specific activity (unit/mg protein), myofibril (unit/mg protein) (myofibrillar protein): 672

Substance: subtilisin YaB mutant G159Y (enzyme)
Specific activity (unit/mg protein), elastin-orcein (unit/mg protein) (elastin-orcein): 203
Specific activity (unit/mg protein), casein (unit/mg protein) (casein): 1010

Substance: wild type subtilisin YaB (enzyme)
Specific activity (unit/mg protein), elastin-orcein (unit/mg protein) (elastin-orcein): 541
Specific activity (unit/mg protein), casein (unit/mg protein) (casein): 8250
Specific activity (unit/mg protein), myofibril (unit/mg protein) (myofibrillar protein): 5160

Substance: subtilisin YaB mutant G124I (enzyme)
Specific activity (unit/mg protein), elastin-orcein (unit/mg protein) (elastin-orcein): 64
Specific activity (unit/mg protein), casein (unit/mg protein) (casein): 602
Specific activity (unit/mg protein), myofibril (unit/mg protein) (myofibrillar protein): 717

Substance: subtilisin YaB mutant G151V (enzyme)
Specific activity (unit/mg protein), elastin-orcein (unit/mg protein) (elastin-orcein): 148
Specific activity (unit/mg protein), casein (unit/mg protein) (casein): 618

Substance: subtilisin YaB mutant G124L (enzyme)
Specific activity (unit/mg protein), elastin-orcein (unit/mg protein) (elastin-orcein): 157
Specific activity (unit/mg protein), casein (unit/mg protein) (casein): 1250
Specific activity (unit/mg protein), myofibril (unit/mg protein) (myofibrillar protein): 366

Substance: subtilisin YaB mutant G159A (enzyme; unit assumed)
kcat /Km [1]: 40500 M⁻¹ s⁻¹
kcat /Km [2]: 15700 M⁻¹ s⁻¹
kcat /Km [3]: 3860 M⁻¹ s⁻¹
kcat /Km [4]: 1040 M⁻¹ s⁻¹

Substance: subtilisin YaB mutant G159S (enzyme; unit assumed)
kcat /Km [1]: 35700 M⁻¹ s⁻¹
kcat /Km [2]: 19800 M⁻¹ s⁻¹
kcat /Km [3]: 4130 M⁻¹ s⁻¹
kcat /Km [4]: 1600 M⁻¹ s⁻¹

Substance: subtilisin YaB mutant G124V (enzyme; unit assumed)
kcat /Km [2]: 6480 M⁻¹ s⁻¹
kcat /Km [4]: 416 M⁻¹ s⁻¹

Substance: subtilisin YaB mutant G151A (enzyme)
Specific activity (unit/mg protein), elastin-orcein (unit/mg protein) (elastin-orcein): 355
Specific activity (unit/mg protein), casein (unit/mg protein) (casein): 1780
Specific activity (unit/mg protein), myofibril (unit/mg protein) (myofibrillar protein): 750

Substance: subtilisin YaB mutant G124V (enzyme)
Specific activity (unit/mg protein), elastin-orcein (unit/mg protein) (elastin-orcein): 425
Specific activity (unit/mg protein), casein (unit/mg protein) (casein): 1400
Specific activity (unit/mg protein), myofibril (unit/mg protein) (myofibrillar protein): 605

Substance: subtilisin YaB mutant G159L (enzyme)
Specific activity (unit/mg protein), elastin-orcein (unit/mg protein) (elastin-orcein): 9
Specific activity (unit/mg protein), casein (unit/mg protein) (casein): 112

Substance: subtilisin YaB mutant G124A (enzyme)
Specific activity (unit/mg protein), elastin-orcein (unit/mg protein) (elastin-orcein): 647
Specific activity (unit/mg protein), casein (unit/mg protein) (casein): 3800
Specific activity (unit/mg protein), myofibril (unit/mg protein) (myofibrillar protein): 1020

Further lines, results first:

Specific activity (unit/mg protein), elastin-orcein (unit/mg protein) (elastin-orcein): 1510
Specific activity (unit/mg protein), casein (unit/mg protein) (casein): 8940
Specific activity (unit/mg protein), myofibril (unit/mg protein) (myofibrillar protein): 2330
Substance: subtilisin YaB mutant G159S (enzyme)

Specific activity (unit/mg protein), elastin-orcein (unit/mg protein) (elastin-orcein): 37
Specific activity (unit/mg protein), casein (unit/mg protein) (casein): 431
Substance: subtilisin YaB mutant G159V (enzyme)

kcat /Km [1]: 4600 M⁻¹ s⁻¹
kcat /Km [2]: 14200 M⁻¹ s⁻¹
kcat /Km [3]: 5250 M⁻¹ s⁻¹
kcat /Km [4]: 1670 M⁻¹ s⁻¹
Substance: wild type subtilisin YaB (enzyme; unit assumed)

Specific activity (unit/mg protein), elastin-orcein (unit/mg protein) (elastin-orcein): 2080
Specific activity (unit/mg protein), casein (unit/mg protein) (casein): 7780
Specific activity (unit/mg protein), myofibril (unit/mg protein) (myofibrillar protein): 2040
Substance: subtilisin YaB mutant G159A (enzyme)

kcat /Km [2]: 122000 M⁻¹ s⁻¹
kcat /Km [4]: 17000 M⁻¹ s⁻¹
Substance: subtilisin YaB mutant G124A (enzyme; unit assumed)

kcat /Km [2]: 56100 M⁻¹ s⁻¹
kcat /Km [3]: 5590 M⁻¹ s⁻¹
kcat /Km [4]: 2690 M⁻¹ s⁻¹
Substance: subtilisin YaB mutant G151A (enzyme; unit assumed)

Specific activity (unit/mg protein), elastin-orcein (unit/mg protein) (elastin-orcein): 138
Specific activity (unit/mg protein), casein (unit/mg protein) (casein): 511
Substance: subtilisin YaB mutant G151I (enzyme)

Specific activity (unit/mg protein), elastin-orcein (unit/mg protein) (elastin-orcein): 12
Specific activity (unit/mg protein), casein (unit/mg protein) (casein): 135
Substance: subtilisin YaB mutant G159F (enzyme)

Specific activity (unit/mg protein), elastin-orcein (unit/mg protein) (elastin-orcein): 142
Specific activity (unit/mg protein), casein (unit/mg protein) (casein): 872
Substance: subtilisin YaB mutant G159I (enzyme)
